Publication PMC13190736

Experiments:
[1] = biological target: staphylococcal enterotoxin C (SEC-2), wild type (Staphylococcus aureus) (UniProt P34071); test: SPR
[2] = biological target: staphylococcal enterotoxin C (SEC-2), wild type (Staphylococcus aureus) (UniProt P34071); test: ELISA

Binder	Kd [1] [nM]	EC50 [2] [nM]
Nb C112 (VHH) VHH: QVQLVESGGGLVQAGGSLRLSCTASERMYGIEMGWFRQAPGKERELVAAITWSGVVSHLQESVKGRFTISRDNPKKTVYLQMNSLKPEDTATYYCAGHRLQWASGYTRHDYGSWGQGTQVTVSS	0.179	
Nb C107 (VHH) VHH: QVQLVESGGGLVQPGGSLRLSCAPSGSTSGIYASGWYRQVPGKPQEWLADISRGGSTKYADSVKGRFTISRDNAKNTVYLQMNSLKPEDTATYYCRVIDTLGAEYRGQGTQVTVSS		2.5
